# Laboratory results: PMC9454918
# Target: recombinant goose FST protein (148-amino-acid peptide of goose follistatin, residues 93-240) (goose)
# Assay: SDS-PAGE and Western blot; purified recombinant protein on an SDS-PAGE gel stained with Coomassie blue; Western blot with an anti-His tag antibody
substance,measurement,value
"recombinant goose FST protein (148-amino-acid peptide of goose follistatin, residues 93-240) (domain or fragment)",stoichiometry N,2
